Laboratory results from paper PMC1976452.
Like-named read-outs stand apart in the source and are kept apart here.

B1: P8 ssDNA control (ssDNA)
DNA: GTCTCTTGTGTGACTCTGGTAAC
B2: H1 RNA hairpin control (structured_RNA)
RNA: GGACUUCGGUCC

Assays:
[1] = target: T1, thrombin (Amersham Biosciences) (human, UniProt P00734;P00734 315-363;364-622); test: filter binding
[2] = target: T1, thrombin (Amersham Biosciences); test: filter binding; remark: listed apart in the source

Binder	binding result [1]	binding result [2]
B1	no binding	
B2		no binding
